Measured values published in patent US20220259593A1, “CONTROL OF MAMMALIAN GENE DOSAGE USING CRISPR” (The Regents of the University of California, priority 2019, published 2022).

B1: cr680 (nucleic acid)
guide: GTTTAAGAGCTAAGCTGGAAACAGCATAGCAAGTTTAAATAACGCTAGTCGGTTATCAACATGAAAATGTGGCTCCGAGTCGGAGCT
modifications: listed as DNA, chemistry not fully specified
B2: cr496 (nucleic acid)
guide: GTTTAAGAGCTAAGCTGGAAACAGCATAACAAGTTTAAATAAGGCTAGTCCTTTATCAACTTGAAAAAGTGGCACCGAGACGGTGCT
modifications: listed as DNA, chemistry not fully specified
B3: cr048 (nucleic acid)
guide: TTTCAAGAGCTAAGCTGGAAACAGCATAGCAAGTTTAAATAAGGCTAGTCCGTTATCAACTTGAAAAAGTGGCACCGAGTCGGTGCT
modifications: listed as DNA, chemistry not fully specified
B4: cr711 (nucleic acid)
guide: GTTTAAGAGCTAAGCTGGAAACAGCATAGCAAGGTTAAATAAGGCTAGTCCGTTATCAACTTGAAAAAGTGCCACCGAGTCGGTGGT
modifications: listed as DNA, chemistry not fully specified
B5: cr386 (nucleic acid)
guide: GTTTAAGAGCTAAGCTGGAAACAGCATAGCAAGGTTAAATAAGGCTAGTCCGTTATCAACCTGAAAAGGTGGCACCGAGTCGGTGCT
modifications: listed as DNA, chemistry not fully specified
B6: cr641 (nucleic acid)
guide: GTTTAAGAGCTAAGCTGGAAACAGCATAGCAAGGTTAAATAAGGCTAGTCCGTTATCAACTTGAAAAAGTGGCACCGAGTCGGTGCT
modifications: listed as DNA, chemistry not fully specified
B7: cr745 (nucleic acid)
guide: GTTTAAGAGCTAAGCTGGAAACAGCATAGCAAGTTTAAATAAAGCTAGTCCGTTATCAACTTGAAAAAGTGGCACCGAGTCGGTGCT
modifications: listed as DNA, chemistry not fully specified
B8: cr935 (nucleic acid)
guide: GTTTAAGAGCTAAGCTGGAAACAGCATAGCAAGTTTAAATGAGGCTAGTCCGTTATCAACTTGACAAAGTGGCACCGAGTCGGTGCT
modifications: listed as DNA, chemistry not fully specified
B9: cr986 (nucleic acid)
guide: GTTTAAGAGCTAAGCTGGAAACAGCATAGCAAGTTTAAATAAGGCTAGGCCGTTATCAACTTGAAAAAGTGGCACCGAGTCGGTGCT
modifications: listed as DNA, chemistry not fully specified
B10: cr454 (nucleic acid)
guide: GTTTAAGAGCTAAGCTGGAAACAGCATAGCAAGTTTAAATAATGCTAGTCAGTTATCACCTTGAAAAAGGGGTACCGAGTCGGTACT
modifications: listed as DNA, chemistry not fully specified
B11: cr410 (nucleic acid)
guide: GTTTAAGAGCTAAGCTGGAAACAGCATAGCAAGTTTAAATAAGGCTAGTCCGTTATCAGCTTGAGAAAGCGGCACCGAGTCGGTGCT
modifications: listed as DNA, chemistry not fully specified
B12: cr032 (nucleic acid)
guide: GATTGAGAGCTAAGCTGGAAACAGCATAGCAAGTTTAAATAAGGCTAGTCCGTTATCAACTTGAAAAAGTGGCACCGAGTCGGTGCT
modifications: listed as DNA, chemistry not fully specified
B13: cr961 (nucleic acid)
guide: GTTTAAGAGCTAAGCTGGAAACAGCATAGCAAGTTTAAATAAGGCTAGTCCGTTATCAACTCGAAAGAGTGCAACCGAGTCGGTTGT
modifications: listed as DNA, chemistry not fully specified
B14: cr492 (nucleic acid)
guide: GTTTAAGAGCTAAGCTGGAAACAGCATAGCAAGTTTAAATAAGGCTAGTCCGTTCTCAACTTGAAAAAGTGGCACCGAGTCGGTGCT
modifications: listed as DNA, chemistry not fully specified
B15: cr320 (nucleic acid)
guide: GTTTAAGAGCTAAGCTGGAAACAGCATAGCATGTTTAAATAAGGCTAGTCCGTTATCAACTTGAGAAAGTGGCACCGAGTCGGTGCT
modifications: listed as DNA, chemistry not fully specified
B16: cr547 (nucleic acid)
guide: GTTTAAGAGCTAAGCTGGAAACAGCATAGCAAGTTTAAATGAGGCTAGTCCGTTATCAACTTGAAAAAGTGGCACCGAATCGGTGCT
modifications: listed as DNA, chemistry not fully specified
B17: cr737 (nucleic acid)
guide: GTTTAAGAGCTAAGCTGGAAACAGCATAGCAAGTTTAAATAAGGCTAGTCCGTTATCAACTTGAAAAAGTGGCAGGCTGTGGCTGCT
modifications: listed as DNA, chemistry not fully specified
B18: cr633 (nucleic acid)
guide: GTTTAAGAGCTAAGCTGGAAACAGCATGGCAATTTTAAATACGGCTAGTCCGTTATCAACTTGAAAAAGTGGCACCGAGTCGGTGCT
modifications: listed as DNA, chemistry not fully specified
B19: cr085 (nucleic acid)
guide: GTTTTTGAGCTAAGCTGGAAACAGCATAGCAAGTTTAAATAAGGCTAGTCCGTTATCAACTTGAAAAAGTGGCACCGAGTCGGTGCT
modifications: listed as DNA, chemistry not fully specified
B20: cr581 (nucleic acid)
guide: GTTTAAGAGCTAAGCTGGAAACAGCATAGCAAGTTTTAATAAGGCTAGTCCGTTATCAACTTGAAAAAGTGGCACCGAGTCGGTGCT
modifications: listed as DNA, chemistry not fully specified
B21: cr952 (nucleic acid)
guide: GTTTAAGAGCTAAGCTGGAAACAGCATAGCTAGTTTAAATAAGGCTAGGCCGTAATCAACTTGAAAAAGTGGCACCGAGTCGGTGCT
modifications: listed as DNA, chemistry not fully specified
B22: cr946 (nucleic acid)
guide: GTTTAAGAGCTAAGCTGGAAACAGCATAGCAAGTTTAAATAACGCTAGTCGGTTATCAACTGGAAACAGTGGCGCCGAGTCGGCGCT
modifications: listed as DNA, chemistry not fully specified
B23: cr542 (nucleic acid)
guide: GTTTAAGAGCTAAGCTGGAAACAGCATAGCAAGATTAAATAAGGCTAGTCCGTCATCGACTTGAAAAAGTGGCACCGAGTCGGTGCT
modifications: listed as DNA, chemistry not fully specified
B24: cr043 (nucleic acid)
guide: GGTTTAGAGCTAAGCTGGAAACAGCATAGCAAGTTTAAATAAGGCTAGTCCGTTATCAACTTGAAAAAGTGGCACCGAGTCGGTGCT
modifications: listed as DNA, chemistry not fully specified
B25: cr950 (nucleic acid)
guide: GTTTAAGAGCTAAGCTGGAAACAGCATAGCTAGGTTAAATAAGGCTAGTCCGTGATCAACTTGAAAAAGTGGCACCGAGTCGGTGCT
modifications: listed as DNA, chemistry not fully specified
B26: cr922 (nucleic acid)
guide: GTTTAAGAGCTAAGCTGGAAACAGCATAGCAAGGTTAAATAAGGCTAGTCCGTTATCAACTTGAAAAAGTGGCAACGAGTCGTTGCT
modifications: listed as DNA, chemistry not fully specified
B27: cr700 (nucleic acid)
guide: GTTTAAGAGCTAAGCTGGAAACAGCATAGCAAGTTTAAATTAGGCTAGTCCGTTATCAACTTGAAAAAGTGGCACCGCGTCGGTGCT
modifications: listed as DNA, chemistry not fully specified
B28: cr958 (nucleic acid)
guide: GTTTAAGAGCTAAGCTGGAAACAGCATAGCAACTTTAAATAAGGCTAGTCCGTTATCAACTTGAAAAAGTGGCACTGAGTCAGTGCT
modifications: listed as DNA, chemistry not fully specified
B29: cr080 (nucleic acid)
guide: TTTTTAGAGCTAAGCTGGAAACAGCATAGCAAGTTTAAATAAGGCTAGTCCGTTATCAACTTGAAAAAGTGGCACCGAGTCGGTGCT
modifications: listed as DNA, chemistry not fully specified
B30: cr030 (nucleic acid)
guide: GCTTTAGAGCTAAGCTGGAAACAGCATAGCAAGTTTAAATAAGGCTAGTCCGTTATCAACTTGAAAAAGTGGCACCGAGTCGGTGCT
modifications: listed as DNA, chemistry not fully specified

What follows are molecules tested on K562 CRISPRi cells (assay: Constant region variant library pooled growth screen, K562). Conditions: sgRNA constant region variant; activity relative to unmodified constant region cr995; mean CRISPRi activity.
Assay type: cell-based, human
In short: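 Cells were selected with puromycin for 2 days and then kept in RPMI-1640 spinner cultures, with duplicates handled separately. Targeting sequences comprised 3 sgRNAs per essential gene for 10 genes plus six non-targeting controls. Activities were normalized against pairing with the unmodified scaffold.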

Row | Molecule | Mean relative activity
1 | B1 | 0.02086
2 | B2 | 0.02078

Same assay, conditions: sgRNA constant region variants; activity relative to the original, un-modified constant region cr995

Row | Molecule | Mean relative activity
3 | B3 | 0.02761
4 | B4 | 0.0267
5 | B5 | 0.02428
6 | B6 | 0.02687
7 | B7 | 0.02631
8 | B8 | 0.02413
9 | B9 | 0.0258
10 | B10 | 0.02618
11 | B11 | 1.034
12 | B12 | 0.02646
13 | B13 | 1.088
14 | B14 | 1.034
15 | B15 | 1.035
16 | B16 | 0.02194
17 | B17 | 0.02539
18 | B18 | 0.02445
19 | B19 | 0.02666
20 | B20 | 0.02488
21 | B21 | 0.02621
22 | B22 | 0.0237
23 | B23 | 0.02115
24 | B24 | 0.0245
25 | B25 | 0.0224
26 | B26 | 0.02327
27 | B27 | 0.02103
28 | B28 | 0.0249
29 | B29 | 0.02323
30 | B30 | 0.02089
